Assay [1] concerns the target C-terminal truncated Entamoeba histolytica ornithine decarboxylase (EhODCΔ15) (Entamoeba histolytica). Description: SEC; HiLoad 16/60 Superdex 200, purified protein at 5 mg/ml injected, 0.5 ml/min; elution compared with Gel Filtration HMW Calibration kit markers; eluted at 74 ml.
Assay [2] has the same target. As to the kind of experiment: crystal structure; sitting drop, 20% PEG 3350, 0.2 M LiCl, pH 6.8, 20°C; P212121, four molecules per asymmetric unit; molecular replacement with human ODC (PDB 2ON3); apo-enzyme.

A word on the stoichiometry N: it is a count of units in the complex or per binding partner. In the case of “C-terminal truncated Entamoeba histolytica ornithine decarboxylase (EhODCΔ15) (enzyme)”, the stoichiometry N in assay [1] is 2; in assay [2], 4.

The values above are taken from publication PMC3543441.
